Measurements published in the Human Domainome abundance scans (Beltran et al. 2025).
± gives the uncertainty stated by the source.

B1: Nuclear receptor subfamily 4 group A member 2, residues 260 to 336; numbered along this chain, P43354 (parent)
chain: EGLCAVCGDNAACQHYGVRTCEGCKGFFKRTVQKNAKYVCLANKNCPVDKRRRNRCQYCRFQKCLAVGMVKEVVRTD

Variants of: B1
Test: abundance fitness (aPCA) (normalised: wild type 0, dead -1); higher = more abundant; growth selection in yeast, the domain comes from the species named
Details: Homo sapiens

Variant | abundance fitness
EGLCAVCGDNAACQHYGVRTCEGCKGFFKRTVQKNAKYVCLANKNCPVDKRRRNRCQYCRFQKALAVGMVKEVVRTD [C64A] | -0.163 ± 0.11
EGLCAVCGDNAACQHYGVRTCEGCKGFFKRTVQKNAKYVCLANKNCPVDKRRRNRCQYCRFQKFLAVGMVKEVVRTD [C64F] | -0.848 ± 0.23
EGLCAVCGDNAACQHYGVRTCEGCKGFFKRTVQKNAKYVCLANKNCPVDKRRRNRCQYCRFQKGLAVGMVKEVVRTD [C64G] | -0.277 ± 0.035
EGLCAVCGDNAACQHYGVRTCEGCKGFFKRTVQKNAKYVCLANKNCPVDKRRRNRCQYCRFQKILAVGMVKEVVRTD [C64I] | -0.399 ± 0.36
EGLCAVCGDNAACQHYGVRTCEGCKGFFKRTVQKNAKYVCLANKNCPVDKRRRNRCQYCRFQKLLAVGMVKEVVRTD [C64L] | -0.372 ± 0.08
EGLCAVCGDNAACQHYGVRTCEGCKGFFKRTVQKNAKYVCLANKNCPVDKRRRNRCQYCRFQKRLAVGMVKEVVRTD [C64R] | -0.608 ± 0.14
EGLCAVCGDNAACQHYGVRTCEGCKGFFKRTVQKNAKYVCLANKNCPVDKRRRNRCQYCRFQKSLAVGMVKEVVRTD [C64S] | -0.397 ± 0.16
EGLCAVCGDNAACQHYGVRTCEGCKGFFKRTVQKNAKYVCLANKNCPVDKRRRNRCQYCRFQKWLAVGMVKEVVRTD [C64W] | -0.859 ± 0.1
EGLCAVCGDNAACQHYGVRTCEGCKGFFKRTVQKNAKYVCLANKNCPVDKRRRNRCQYCRFQKCAAVGMVKEVVRTD [L65A] | -0.146 ± 0.081
EGLCAVCGDNAACQHYGVRTCEGCKGFFKRTVQKNAKYVCLANKNCPVDKRRRNRCQYCRFQKCEAVGMVKEVVRTD [L65E] | -0.038 ± 0.1
EGLCAVCGDNAACQHYGVRTCEGCKGFFKRTVQKNAKYVCLANKNCPVDKRRRNRCQYCRFQKCGAVGMVKEVVRTD [L65G] | -0.264 ± 0.037
EGLCAVCGDNAACQHYGVRTCEGCKGFFKRTVQKNAKYVCLANKNCPVDKRRRNRCQYCRFQKCIAVGMVKEVVRTD [L65I] | -0.274 ± 0.39
EGLCAVCGDNAACQHYGVRTCEGCKGFFKRTVQKNAKYVCLANKNCPVDKRRRNRCQYCRFQKCMAVGMVKEVVRTD [L65M] | -0.262 ± 0.15
EGLCAVCGDNAACQHYGVRTCEGCKGFFKRTVQKNAKYVCLANKNCPVDKRRRNRCQYCRFQKCNAVGMVKEVVRTD [L65N] | 0.153 ± 0.32
EGLCAVCGDNAACQHYGVRTCEGCKGFFKRTVQKNAKYVCLANKNCPVDKRRRNRCQYCRFQKCSAVGMVKEVVRTD [L65S] | -0.308 ± 0.1
EGLCAVCGDNAACQHYGVRTCEGCKGFFKRTVQKNAKYVCLANKNCPVDKRRRNRCQYCRFQKCTAVGMVKEVVRTD [L65T] | -0.659 ± 0.32
EGLCAVCGDNAACQHYGVRTCEGCKGFFKRTVQKNAKYVCLANKNCPVDKRRRNRCQYCRFQKCVAVGMVKEVVRTD [L65V] | -0.096 ± 0.041
EGLCAVCGDNAACQHYGVRTCEGCKGFFKRTVQKNAKYVCLANKNCPVDKRRRNRCQYCRFQKCWAVGMVKEVVRTD [L65W] | -0.299 ± 0.059

Variant | abundance fitness
EGLCAVCGDNAACQHYGVRTCEGCKGFFKRTVQKNAKYVCLANKNCPVDKRRRNRCQYCRFQKCYAVGMVKEVVRTD [L65Y] | -0.317 ± 0.18
EGLCAVCGDNAACQHYGVRTCEGCKGFFKRTVQKNAKYVCLANKNCPVDKRRRNRCQYCRFQKCLCVGMVKEVVRTD [A66C] | -0.21 ± 0.066
EGLCAVCGDNAACQHYGVRTCEGCKGFFKRTVQKNAKYVCLANKNCPVDKRRRNRCQYCRFQKCLDVGMVKEVVRTD [A66D] | 0.135 ± 0.11
EGLCAVCGDNAACQHYGVRTCEGCKGFFKRTVQKNAKYVCLANKNCPVDKRRRNRCQYCRFQKCLEVGMVKEVVRTD [A66E] | -0.051 ± 0.14
EGLCAVCGDNAACQHYGVRTCEGCKGFFKRTVQKNAKYVCLANKNCPVDKRRRNRCQYCRFQKCLFVGMVKEVVRTD [A66F] | -0.228 ± 0.14
EGLCAVCGDNAACQHYGVRTCEGCKGFFKRTVQKNAKYVCLANKNCPVDKRRRNRCQYCRFQKCLGVGMVKEVVRTD [A66G] | -0.013 ± 0.042
EGLCAVCGDNAACQHYGVRTCEGCKGFFKRTVQKNAKYVCLANKNCPVDKRRRNRCQYCRFQKCLIVGMVKEVVRTD [A66I] | -0.099 ± 0.28
EGLCAVCGDNAACQHYGVRTCEGCKGFFKRTVQKNAKYVCLANKNCPVDKRRRNRCQYCRFQKCLKVGMVKEVVRTD [A66K] | -0.2 ± 0.36
EGLCAVCGDNAACQHYGVRTCEGCKGFFKRTVQKNAKYVCLANKNCPVDKRRRNRCQYCRFQKCLLVGMVKEVVRTD [A66L] | 0.005 ± 0.059
EGLCAVCGDNAACQHYGVRTCEGCKGFFKRTVQKNAKYVCLANKNCPVDKRRRNRCQYCRFQKCLMVGMVKEVVRTD [A66M] | -0.032 ± 0.2
EGLCAVCGDNAACQHYGVRTCEGCKGFFKRTVQKNAKYVCLANKNCPVDKRRRNRCQYCRFQKCLNVGMVKEVVRTD [A66N] | 0.101 ± 0.45
EGLCAVCGDNAACQHYGVRTCEGCKGFFKRTVQKNAKYVCLANKNCPVDKRRRNRCQYCRFQKCLRVGMVKEVVRTD [A66R] | -0.114 ± 0.079
EGLCAVCGDNAACQHYGVRTCEGCKGFFKRTVQKNAKYVCLANKNCPVDKRRRNRCQYCRFQKCLTVGMVKEVVRTD [A66T] | -0.223 ± 0.24
EGLCAVCGDNAACQHYGVRTCEGCKGFFKRTVQKNAKYVCLANKNCPVDKRRRNRCQYCRFQKCLVVGMVKEVVRTD [A66V] | -0.17 ± 0.051
EGLCAVCGDNAACQHYGVRTCEGCKGFFKRTVQKNAKYVCLANKNCPVDKRRRNRCQYCRFQKCLWVGMVKEVVRTD [A66W] | -0.282 ± 0.074
EGLCAVCGDNAACQHYGVRTCEGCKGFFKRTVQKNAKYVCLANKNCPVDKRRRNRCQYCRFQKCLAAGMVKEVVRTD [V67A] | -0.029 ± 0.063
EGLCAVCGDNAACQHYGVRTCEGCKGFFKRTVQKNAKYVCLANKNCPVDKRRRNRCQYCRFQKCLACGMVKEVVRTD [V67C] | -0.114 ± 0.072
EGLCAVCGDNAACQHYGVRTCEGCKGFFKRTVQKNAKYVCLANKNCPVDKRRRNRCQYCRFQKCLADGMVKEVVRTD [V67D] | -0.728 ± 0.31
